Experimental data from CN115232210A (SHANGDONG NEW TIME PHARM PROD, dated 2022).

Columns and labels:
重组人CD40-his蛋白 = target: T1, 重组人CD40-his蛋白 (human, UniProt P25942 21-193); experiment: BLI (Fortebio Blitz), antibody on AMC sensor, huCD40-his 6.25-200 nM
T1 construct: extracellular domain; Recombinant protein; also called 人CD40(ECD)-his; huCD40-his; not shown: his tag

HEK293T细胞表达的人CD40 = target: T2, HEK293T细胞表达的人CD40 (human, UniProt P25942 21-277); experiment: flow cytometry on 293T-huCD40 cells
T2 construct: whole, on cells; also called HEK293T-huCD40
T2 sequence (P25942 21-277): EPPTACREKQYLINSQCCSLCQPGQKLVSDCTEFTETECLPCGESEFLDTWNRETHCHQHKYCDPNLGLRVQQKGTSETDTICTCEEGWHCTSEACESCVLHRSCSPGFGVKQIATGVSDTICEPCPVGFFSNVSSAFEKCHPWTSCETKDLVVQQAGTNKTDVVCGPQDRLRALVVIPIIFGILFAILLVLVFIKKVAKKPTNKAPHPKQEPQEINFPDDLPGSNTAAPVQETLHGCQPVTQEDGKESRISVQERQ

T1 sequence (P25942 21-193): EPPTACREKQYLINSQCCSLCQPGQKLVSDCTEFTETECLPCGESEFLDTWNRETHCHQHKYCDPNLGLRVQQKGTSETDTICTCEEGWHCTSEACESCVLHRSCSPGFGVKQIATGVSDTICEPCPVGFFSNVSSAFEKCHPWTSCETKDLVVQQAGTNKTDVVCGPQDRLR

Binder | Kd (重组人CD40-his蛋白) [nM] | koff (重组人CD40-his蛋白) [s⁻¹] | kon (重组人CD40-his蛋白) [M⁻¹ s⁻¹] | EC50 (HEK293T细胞表达的人CD40) [µg/mL]
嵌合抗体C42 (antibody, human IgG1, kappa, V domains shown, Mouse-human chimeric IgG1/kappa expressed in Expi-293 cells; also called 42Chimeric; 抗体42D11-8的嵌合抗体) VH: QVQLKQSGPGLVQPSQSLSITCTVSGFSLTSYGVHWVRQSPGKGLEWLGMIWSGGSTDYNSAFISRLSISKDNFKSQVFFKMNSLQADDTAIYYCARVGGDYWGQGTTVTVSS VL: DIVITQTPLSLPVSLGDPASISCRSSQSLVHSRGNTYLHWFLQKPGQSPKLLIYKVSNRFSGVPDRFSGSGSGTDFTLRISRLEAEDLGVYFCFQTTHVPWTFGGGTKLEIKR | 13.5 | 0.00524 | 389000 | –
APX005M (antibody, V domains shown) VH: QVQLVESGGGVVQPGRSLRLSCAASGFSFSSTYVCWVRQAPGKGLEWIACIYTGDGTNYSASWAKGRFTISKDSSKNTVYLQMNSLRAEDTAVYFCARPDITYGFAINFWGPGTLVTVSS VL: DIQMTQSPSSLSASVGDRVTIKCQASQSISSRLAWYQQKPGKPPKLLIYRASTLASGVPSRFSGSGSGTDFTLTISSLQPEDVATYYCQCTGYGISWPIGGGTKVEIK | 38.2 | 0.00533 | 140000 | 0.487
人源化抗体42 (antibody, human IgG1, kappa, V domains shown, Humanized IgG1/kappa; also called 42D11-8-humanized; 42Humanized) VH: QVQLQESGPGLVKPSQTLSLTCTVSGFSLTSYGVHWVRQHPGKGLEWLGMIWSGGSTDYNSAFISRLTISKDNSKSQVSLKLSSVTAADTAVYYCARVGGDYWGQGTTVTVSS VL: DIVITQSPLSLPVTLGQPASITCRSSQSLVHSRGNTYLHWFQQRPGQSPRLLIYKVSNRFSGVPDRFSGSGSGTDFTLKISRVEAEDVGVYFCFQTTHVPWTFGQGTRLEIKR | 33.2 | 0.00312 | 94000 | 0.251

Further binders by falling Kd (重组人CD40-his蛋白), results first:

Kd (重组人CD40-his蛋白) [nM] | koff (重组人CD40-his蛋白) [s⁻¹] | kon (重组人CD40-his蛋白) [M⁻¹ s⁻¹] | EC50 (HEK293T细胞表达的人CD40) [µg/mL] | Binder
16.5 | 0.00223 | 135000 | 0.297 | 人源化抗体31 (antibody, human IgG1, kappa, V domains shown, Humanized IgG1/kappa; also called 31A2-2-humanized; 31Humanized) VH: QVQLQESGPGLVKPSETLSLTCTVSGFSLTSYSVHWVRQPPGKGLEWLGMIWSGGSTDYNAAFISRLTISKDNSKSQVSLKLSSVTAADTAVYYCARVGGDYWGQGTTVTVSS VL: DVVMTQSPLSLPVTLGQPASITCRSSQSLLHSRGNTYLHWFQQRPGQSPRLLIYKVSNRFSGVPDRFSGSGSGTDFTLKISRVEAEDVGVYFCFQTTHVPWTFGQGTRLEIKR
4.52 | 0.000395 | 87500 | – | 嵌合抗体C31 (antibody, human IgG1, kappa, V domains shown, Mouse-human chimeric IgG1/kappa expressed in Expi-293 cells; also called 31Chimeric; 抗体31A2-2的鼠人嵌合抗体) VH: QVQLKESGPGLVQPSQSLSITCTVSGFSLTNYSVHWVRQSPGKGLEWLGMIWSGGSTDYNAAFISRLSISKDNFKSQVFFKMNSLQADDTAIYYCARVGGDYWGQGTTVTVSS VL: DVLMTQTPLSLPVSLGDPASISCRSSQSLLHSRGNTYLHWFLQKPGQSPKLLIYKVSNRFSGVPDRFSGSGSGTDFTLRISRVEAEDLGVYFCFQTTHVPWTFGGGTKLEIKR
